According to publication PMC8049995 (The Journal of Biological Chemistry, 2021):
Positions count from the first letter of the chain named. Numbers in names are those of the source.

Columns and labels:
SEC = molecular target: the molecule itself; assay: SEC
SEC-MALS = molecular target: the molecule itself; assay: SEC-MALS
AUC = molecular target: the molecule itself; assay: AUC
crystal structure = molecular target: the molecule itself; assay: crystal structure

B1: Human peroxiredoxin 2 C172W mutant, reduced (enzyme, UniProt P32119 2-198, looked up)
chain: ASGNARIGKPAPDFKATAVVDGAFKEVKLSDYKGKYVVLFFYPLDFTFVCPTEIIAFSNRAEDFRKLGCEVLGVSVDSQFTHLAWINTPRKEGGLGPLNIPLLADVTRRLSEDYGVLKTDEGIAYRGLFIIDGKGVLRQITVNDLPVGRSVDEALRLVQAFQYTDEHGEVWPAGWKPGSDTIKPNVDDSKEYFSKHN
- percent decamer (SEC): 62%
- stoichiometry N (SEC-MALS): 10

B2: Human peroxiredoxin 2 C172S mutant, reduced (enzyme, UniProt P32119 2-198, looked up)
chain: B1 chain with W171S
- percent decamer (SEC): 60%
- stoichiometry N (AUC): 10

B3: Human peroxiredoxin 2 C172D mutant, reduced (enzyme, UniProt P32119 2-198, looked up)
chain: B1 chain with W171D
- percent decamer (SEC): 45%
- stoichiometry N (AUC): 10

B4: Human peroxiredoxin 2, recombinant wild type, hyperoxidized (CP sulfinate) form (enzyme, UniProt P32119 2-198, looked up)
chain: B1 chain with W171C
modifications: Cys51 (CP) sulfinate
- stoichiometry N (crystal structure): 10
